The target of this assay is Msh2–Msh3 (S. cerevisiae, UniProt P25847 1-964; P25336 1-1018). Put plainly: far-Western, overlay or dot blot.

B1: His–rad1R203A,K205A–Rad10 (complex, S. cerevisiae)
chain 1: MSQLFYQGDSDDELQEELTRQTTQASQSSKIKNEDEPDDSNHLNEVENEDSKVLDDDAVLYPLIPNEPDDIETSKPNINDIRPVDIQLTLPLPFQQKVVENSLITEDALIIMGKGLGLLDIVANLLHVLATPTSINGQLKRALVLVLNAKPIDNVRIKEALEELSWFSNTGKDDDDTAVESDDELFERPFNVVTADSLSIEKARALYISGGILSITSRILIVDLLSGIVHPNRVTGMLVLNADSLRHNSNESFILEIYRSKNTWGFIKAFSEAPETFVMEFSPLRTKMKELRLKNVLLWPRFRVEVSSCLNATNKTSHNKVIEVKVSLTNSMSQIQFGLMECLKKCIAELSRKNPELALDWWNMENVLDINFIRSIDSVMVPNWHRISYESKQLVKDIRFLRHLLKMLVTSDAVDFFGEIQLSLDANKPSVSRKYSESPWLLVDEAQLVISYAKKRIFYKNEYTLEENPKWEQLIHILHDISHERMTNHLQGPTLVACSDNLTCLELAKVLNASNKKRGVRQVLLNKLKWYRKQREETKKLVKEVQSQDTFPENATLNVSSTFSKEQVTTKRRRTRGASQVAAVEKLRNAGTNVDMEVVFEDHKLSEEIKKGSGDDLDDGQEENAANDSKIFEIQEQENEILIDDGDAEFDNGELEYVGDLPQHITTHFNKDLWAEHCNEYEYVDRQDEILISTFKSLNDNCSLQEMMPSYIIMFEPDISFIRQIEVYKAIVKDLQPKVYFMYYGESIEEQSHLTAIKREKDAFTKLIRENANLSHHFETNEDLSHYKNLAERKLKLSKLRKSNTRNAGGQQGFHNLTQDVVIVDTREFNASLPGLLYRYGIRVIPCMLTVGDYVITPDICLERKSISDLIGSLQNNRLANQCKKMLKYYAYPTLLIEFDEGQSFSLEPFSERRNYKNKDISTVHPISSKLSQDEIQLKLAKLVLRFPTLKIIWSSSPLQTVNIILELKLGREQPDPSNAVILGTNKVRSDFNSTAKGLKDGDNESKFKRLLNVPGVSKIDYFNLRKKIKSFNKLQKLSWNEINELINDEDLTDRIYYFLRTEKEEQEQESTDENLESPGKTTDDNALHDHHNDVPEAPV
chain 2: MNNTDPTSFESILAGVAKLRKEKSGADTTGSQSLEIDASKLQQQEPQTSRRINSNQVINAFNQQKPEEWTDSKATDDYNRKRPFRSTRPGKTVLVNTTQKENPLLNHLKSTNWRYVSSTGINMIYYDYLVRGRSVLFLTLTYHKLYVDYISRRMQPLSRNENNILIFIVDDNNSEDTLNDITKLCMFNGFTLLLAFNFEQAAKYIEYLNL
As to B1, the “fold lower binding than His–Rad1–Rad10” value is roughly 4 fold.

For the origin of these results see publication PMC6007489 (Nucleic Acids Research, 2018).
